Molecular target: receptors for SCF (kit) on EML clone 1 cells (UniProt P05532)
Assay: cell-based or functional assay

Chain of UniProt P05532 (P05532 25-979 limits assumed): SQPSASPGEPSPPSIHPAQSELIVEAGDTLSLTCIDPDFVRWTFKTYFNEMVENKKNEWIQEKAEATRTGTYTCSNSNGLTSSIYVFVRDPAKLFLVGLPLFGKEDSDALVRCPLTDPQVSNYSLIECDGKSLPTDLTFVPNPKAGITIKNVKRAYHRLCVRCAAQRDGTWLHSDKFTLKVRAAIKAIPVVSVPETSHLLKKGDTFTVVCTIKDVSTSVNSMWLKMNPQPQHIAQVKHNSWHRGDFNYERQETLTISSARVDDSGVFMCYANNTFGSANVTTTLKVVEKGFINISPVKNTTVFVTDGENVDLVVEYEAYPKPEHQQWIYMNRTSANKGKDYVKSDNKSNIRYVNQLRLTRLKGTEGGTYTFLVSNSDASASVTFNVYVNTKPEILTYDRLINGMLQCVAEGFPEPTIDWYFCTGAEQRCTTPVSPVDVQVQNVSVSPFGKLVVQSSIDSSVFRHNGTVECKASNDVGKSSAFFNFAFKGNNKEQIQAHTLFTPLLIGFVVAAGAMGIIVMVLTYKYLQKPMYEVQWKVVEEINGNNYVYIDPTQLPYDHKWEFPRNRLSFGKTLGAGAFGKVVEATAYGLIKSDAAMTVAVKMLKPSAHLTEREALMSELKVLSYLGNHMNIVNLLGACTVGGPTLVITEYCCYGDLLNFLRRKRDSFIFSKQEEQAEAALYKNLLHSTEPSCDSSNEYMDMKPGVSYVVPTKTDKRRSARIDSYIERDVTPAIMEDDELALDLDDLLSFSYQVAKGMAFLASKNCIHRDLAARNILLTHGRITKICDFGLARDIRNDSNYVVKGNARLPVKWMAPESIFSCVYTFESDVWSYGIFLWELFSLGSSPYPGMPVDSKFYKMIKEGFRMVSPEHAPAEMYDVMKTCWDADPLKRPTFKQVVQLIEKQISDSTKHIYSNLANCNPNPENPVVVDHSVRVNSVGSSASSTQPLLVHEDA

Stem Cell Factor (SCF) (ligand)
fold-increase over control of cell proliferation of EML cells (total DNA, 5 days), 10 nM SCF: 1.25 fold | fold-increase over control of cell proliferation of EML cells (total DNA, 5 days), 50 nM SCF: 2.4 fold

From US20090275130A1
